The text below walks through data of patent US20240377408A1.

Some targets named below: M64-LAEIR; M64-FAEIR; M64-AAEIR; M64-EAEIR; M64-DAEIR.
What all share (test): cell-based or functional assay
Assay [1] deals with human carbonic anhydrase 2 (wild-type hCAII) (Homo sapiens) (UniProt P00918).

Regarding “Carbonic anhydrase I, Homo sapiens (scaffold) (from UniProt P00915 5-261) (enzyme)”, the IC50 values (µM), colorimetric pNPA hydrolysis inhibition assay in the assay with M64-LAEIR amounted to 0.016 µM; with M64-FAEIR it was 0.012 µM; in the assay with M64-AAEIR it was 0.109 µM; in the assay with M64-EAEIR it was 1.09 µM; with M64-DAEIR, 0.136 µM.
Regarding FAAAE (peptide), the IC50 (µM), hCAII functional assay (p-nitrophenyl acetate hydrolysis) in assay [1] is 152 µM.
